According to the nanobody polyreactivity screen of Harvey et al. (2022):

Assay: yeast display, Sf9 membrane polyspecificity reagent, FACS + sequencing; frameworks hold sequencing errors
How it was run: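 In a synthetic yeast display library (Saccharomyces cerevisiae BJ5465), nanobody expression was induced with galactose for 36–48 hours. FACS gates were set low and high (top ~1%) using anti-HA fluorescence for expression and streptavidin fluorescence for binding of the Sf9 membrane reagent. Each polyreactivity label is drawn from the gate of origin.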

| Sequence | polyreactivity (PSR sort gate) |
| --- | --- |
| QVQLVESGGGLVQAGGSLRLSCPASGIIFKGYAMGWYRQAPGKERELVAAISQSGGSTYYADSVKGRFTISRDNAKNTVYLQMNSLKPEDTAVYYCNARYSRVVPRYYYWGQGTQVTVSS | high polyreactivity |
| QVQLVESGGGLVQAGGSLRLSCPASGIIFNDYAMGWYRQAPGKEREMVAAITSNGDNTYYADSVKGRFTISRDNAKNTVYLQMNSLKPEDTAVYYCAVDGSFAADFDNYLEEYGYWGQGTQVTVSS | low polyreactivity |
| QVQLVESGGGLVQAGGSLRLSCPASGIIFNLYAMGWYRQAPGKERELVAAISWSGGSTDYADSVKGRFTISRDNAKNTVYLQMNSLKPEDTAVYYCATSFLYPYFDEDDYWGQGTQVTVSS | high polyreactivity |
| QVQLVESGGGLVQAGGSLRLSCPASGITFGSYAMGWYRQAPGKERELVAAITSGGGTNYADSEKGRFTISRDNAKNTVYLHMNSLKPEDTAGYYCAARYYYLGTRYGYWGQGTQVTVSS | low polyreactivity |
| QVQLVESGGGLVQAGGSLRLSCPASGITVTAYAMGWYRQAPGKERELVATINSTGITNYADSVKGRFTISRDNAKNTVYLQMNSLKPEDTAVYYCAADLMDSSSYDGMDYWGQGTQVTVSS | low polyreactivity |
| QVQLVESGGGLVQAGGSLRLSCPASGLIIGVYAMGWYRQEPGKERELVAAITDGGSTYYADSVKGRFTISRDNAKNTVYLQMNSLKPEDTAVYYCNAEFRSSDYDYWGQGTQVTVSS | low polyreactivity |
| QVQLVESGGGLVQAGGSLRLSCPASGLNFTSYAMGWYRQAPGKERELVAAITWSGSSTYYADSVKGRFTISRDNAKNTVYLQMNSLKPEDTAVYYCAAYRYGRIYRQYAYDYWGQGTQVTVSS | high polyreactivity |
| QVQLVESGGGLVQAGGSLRLSCPASGNIFGNNAMGWYRQAPGKERELVAAIDGSGGSTYYADSVKGRFTISRDKAKNTVYLQMNSLKPEDTAVYYCAKTAVIWRTWRTVPSPGYHFGYWGQGTQVTVSS | low polyreactivity |
| QVQLVESGGGLVQAGGSLRLSCPASGRIFLGNLMGWYRQAPGKERELVAAISWSGGSTYADSVKGRFTISRDNAKNTVYFQMNSLKPEDTAVYYCAKDEGTFYNSYDYWGQGTQVTVSS | low polyreactivity |
| QVQLVESGGGLVQAGGSLRLSCPASGRIFPRYAMGWYRPAPGKERELVARITRRGGITYYADSVKGRFTISRDNAQNTVYLEMNSLKPEDTAVYYCNVDYYRGGDFSYGYDYWGQGTQLTVSS | high polyreactivity |
| QVQLVESGGGLVQAGGSLRLSCPASGRIFYYNAIGWYRQAPGKERELVATITRAGGTYYADSVKGRFTISRDNAKNTVYLQMNSLKPEDTAVYYCAKRHPIVDDYKGDYWGQGTQVTVSS | low polyreactivity |
| QVQLVESGGGLVQAGGSLRLSCPASGRIIAWYAMGWYRQAPGKERELVAVITSSGGSTYYADSVKGRFTISRDNAKNTVYFMMNRLKPEDTAVYYCARKVVSPAWSHDFYYWGLGTQVTVSS | low polyreactivity |
| QVQLVESGGGLVQAGGSLRLSCPASGRTFPGYSKGWYRQAPGKERELVATITGNGGSTYYADSVKGRFTISRENAKNTVYLQMNSLKPEDTAVYYCAGGRRRPYVRAYRGTDYWVQGTQVTVSS | low polyreactivity |
| QVQLVESGGGLVQAGGSLRLSCPASGRTFYKNAMGWYRQAPGKERELVAAITSGGSTNYADSVKGRFTISRDNAKNTVYLQMNSLKSEDTAVYYCAAQQFPYYRSRYSYINKYDYWGQGTQVTVSS | high polyreactivity |
| QVQLVESGGGLVQAGGSLRLSCPASGSIFDPYAMGWYRQAPGKERELVAAITASGSSTYYADSVKGRFTISRDNAKNTVYLQMNSLKPEDTAVYYCAADRAKWEYLLSWLGYDYWGQGTQVTVSS | low polyreactivity |
| QVQLVESGGGLVQAGGSLRLSCPASGSIFFYAMGWYRQAPGKERELVADITYTGGSKYADSVKGRFTISRDNAKNTVYLQMNSLKPEDTAFYYCANLDGGLFDYWGQGTQVTVSS | low polyreactivity |
| QVQLVESGGGLVQAGGSLRLSCPASGSIFGSYAMGWYRQAPGKERELVASITRVDSTNYADSVKGRFTISRDNAKNTVYLQMNRLKPEDTAVYYCNAGKTIDYRDGVGYDHWGQGTQVTVSS | low polyreactivity |
